Columns and labels:
[1] = target: DEP-Venus (isolated DEP domain of human DVL2 tagged with mVenus) (UniProt O14641); assay: direct BRET titration; conditions: HEK293A cells, constant receptor-Nluc plasmid, increasing DEP-Venus plasmid, read off a plot; for other: BRETmax: parent: est. 0.23; for other: log BRET50: parent: est. 2.6
[2] = target: heterotrimeric Gq 4A (Gαq 4A with Venus(1-155)-β1 and Venus(156-239)-γ2), P50148;P62873;P59768; assay: BRET assay (receptor-Nluc and Venus-tagged βγ subunits); conditions: values normalized to cells transfected with the same FZD5-Nluc construct but no Gq 4A; parent: est. 111; read off a plot

Substance | other: BRETmax [1] | other: log BRET50 [1] | response [2] [% BRET]
FZD5-Nluc (wild-type human Frizzled-5, C-terminally tagged with Nanoluciferase) (from UniProt Q13467) C2×50A | 0.12 | 2.8 | 101
FZD5-Nluc (wild-type human Frizzled-5, C-terminally tagged with Nanoluciferase) (from UniProt Q13467) F3×29A | 0.19 | 2.5 | 108
FZD5-Nluc (wild-type human Frizzled-5, C-terminally tagged with Nanoluciferase) (from UniProt Q13467) F4×45A | 0.14 | 3.1 | 102
FZD5-Nluc (wild-type human Frizzled-5, C-terminally tagged with Nanoluciferase) (from UniProt Q13467) G5×65A | 0.25 | 2.4 | 115
FZD5-Nluc (wild-type human Frizzled-5, C-terminally tagged with Nanoluciferase) (from UniProt Q13467) G6×34A | 0.23 | 2.4 | 108
FZD5-Nluc (wild-type human Frizzled-5, C-terminally tagged with Nanoluciferase) (from UniProt Q13467) L3×52A | 0.18 | 2.8 | 103
FZD5-Nluc (wild-type human Frizzled-5, C-terminally tagged with Nanoluciferase) (from UniProt Q13467) L5×62A | 0.24 | 2.4 | 113
FZD5-Nluc (wild-type human Frizzled-5, C-terminally tagged with Nanoluciferase) (from UniProt Q13467) M6×30A | 0.21 | 3.2 | 111
FZD5-Nluc (wild-type human Frizzled-5, C-terminally tagged with Nanoluciferase) (from UniProt Q13467) R6×32A | 0.15 | 4.1 | 106
FZD5-Nluc (wild-type human Frizzled-5, C-terminally tagged with Nanoluciferase) (from UniProt Q13467) T1×50A | 0.22 | 3.2 | 111
FZD5-Nluc (wild-type human Frizzled-5, C-terminally tagged with Nanoluciferase) (from UniProt Q13467) T1×53A | 0.19 | 3.1 | 106
FZD5-Nluc (wild-type human Frizzled-5, C-terminally tagged with Nanoluciferase) (from UniProt Q13467) V3×44A | 0.2 | 2.5 | 107
FZD5-Nluc (wild-type human Frizzled-5, C-terminally tagged with Nanoluciferase) (from UniProt Q13467) W3×43A | 0.22 | 2.6 | 108
FZD5-Nluc (wild-type human Frizzled-5, C-terminally tagged with Nanoluciferase) (from UniProt Q13467) W6×61A | 0.14 | 2.7 | 102
FZD5-Nluc (wild-type human Frizzled-5, C-terminally tagged with Nanoluciferase) (from UniProt Q13467) W7×55A | 0.19 | 3.4 | 111
FZD5-Nluc (wild-type human Frizzled-5, C-terminally tagged with Nanoluciferase) (from UniProt Q13467) Y2×39A | 0.17 | 3.4 | 108
FZD5-Nluc (wild-type human Frizzled-5, C-terminally tagged with Nanoluciferase) (from UniProt Q13467) Y2×51A | 0.15 | 2.7 | 101

Other lines, results leading:

other: BRETmax [1] | other: log BRET50 [1] | response [2] [% BRET] | Substance
0.21 | 2.5 | 106 | FZD5-Nluc (wild-type human Frizzled-5, C-terminally tagged with Nanoluciferase) (from UniProt Q13467) G5×58A
0.16 | 2.7 | 102 | FZD5-Nluc (wild-type human Frizzled-5, C-terminally tagged with Nanoluciferase) (from UniProt Q13467) L5×48A
0.22 | 2.7 | 109 | FZD5-Nluc (wild-type human Frizzled-5, C-terminally tagged with Nanoluciferase) (from UniProt Q13467) L6×52A
0.16 | 3 | 103 | FZD5-Nluc (wild-type human Frizzled-5, C-terminally tagged with Nanoluciferase) (from UniProt Q13467) M3×37A
0.22 | 2.2 | 107 | FZD5-Nluc (wild-type human Frizzled-5, C-terminally tagged with Nanoluciferase) (from UniProt Q13467) M7×44A
0.19 | 2.5 | 105 | FZD5-Nluc (wild-type human Frizzled-5, C-terminally tagged with Nanoluciferase) (from UniProt Q13467) V45×52A
0.19 | 2.9 | 105 | FZD5-Nluc (wild-type human Frizzled-5, C-terminally tagged with Nanoluciferase) (from UniProt Q13467) W8×54A
0.2 | 2.5 | 106 | FZD5-Nluc (wild-type human Frizzled-5, C-terminally tagged with Nanoluciferase) (from UniProt Q13467) Y6×51A
0.13 | 3.1 | 100 | FZD5-Nluc (wild-type human Frizzled-5, C-terminally tagged with Nanoluciferase) (from UniProt Q13467) Y6×53A

From publication PMC10387068
